Legend:
[1] = molecular target: actin (rabbit fast twitch skeletal muscle), reconstituted as actin filament in gelsolin-extracted bovine myocardium (rabbit) (UniProt P68135)
[2] = molecular target: actin (rabbit fast twitch skeletal muscle), reconstituted as actin filament in gelsolin-extracted bovine myocardium (rabbit) (UniProt P68135); remark: listed apart in the source

Stiffness at pCa 7 (25°C), fibres reconstituted with acetyl Tm (from bovine myocardium) and Tn [1]: 0.038 T ac
Stiffness at pCa 7 (25°C), fibres reconstituted with nfTm and Tn [1]: 0.044 T ac
Stiffness at pCa 7 (25°C), fibres reconstituted with ∆2Tm and Tn [1]: 0.039 T ac
Stiffness at pCa 7 (25°C), fibres reconstituted with ∆3Tm and Tn [1]: 0.04 T ac
Tension at pCa 7 (25°C), fibres reconstituted with acetyl Tm (from bovine myocardium) and Tn [1]: 0.168 T ac
Tension at pCa 7 (25°C), fibres reconstituted with nfTm and Tn [1]: 0.065 T ac
Tension at pCa 7 (25°C), fibres reconstituted with ∆2Tm and Tn [1]: 0.109 T ac
Tension at pCa 7 (25°C), fibres reconstituted with ∆3Tm and Tn [1]: 0.196 T ac
Rigor stiffness (100 Hz, 25°C), fibres reconstituted with nfTm and Tn [2]: 166 T ac
Rigor stiffness (100 Hz, 25°C), fibres reconstituted with ∆2Tm and Tn [2]: 201 T ac
Rigor stiffness (100 Hz, 25°C), fibres reconstituted with ∆3Tm and Tn [2]: 249 T ac
Tension (T m), steady-state active tension in the standard activating solution at 25°C, fibres reconstituted with nfTm and Tn [2]: 1.51 T ac
Tension (T m), steady-state active tension in the standard activating solution at 25°C, fibres reconstituted with ∆2Tm and Tn [2]: 1.65 T ac
Tension (T m), steady-state active tension in the standard activating solution at 25°C, fibres reconstituted with ∆3Tm and Tn [2]: 0.91 T ac
Substance: myosin of bovine myocardium (thick filament, cross-bridges) (from UniProt Q9BE39 1-1935) (complex)

— publication PMC2814127
